Experimental data from patent US20050201999A1.

Target: TcpJ, type 4 prepilin peptidase of Vibrio cholerae (wild-type) (Vibrio cholerae)

## Aprotinin (from UniProt P00974)
  % Cleavage of TcpA prepilin by TcpJ in the in vitro cleavage assay: 100%
